Data set [1] deals with Lef-1 reporter gene activity. Nature of the data set: Lef-1 reporter gene assay in 293 cells after antisense transfection. Conditions: Wnt-1 expressed in 293 cells. In kind it is cell-based. The protocol: FIGS. 4A-C Lef-1 reporter gene activity induced by Wnt (A), Dv1-3 (B), or mutant β-catenin (C) is inhibited by CKIε antisense polynucleotides (CKI-a and CKI-b), but not by the reverse sequence control (RC). 293 cells were plated at a density of 1.5*10^5 cells per 12-well dish 16 hours prior to transfection 6 ul 0.5 mM cationic lipitoid and 2 ul 100 uM polynucleotide in 50 ul opti-MEM (Life Technologies) was mixed together and added dropwise to cells in 1 ml of fresh media. After 24 hours cells, cells were washed with opti-MEM and transfected with luciferase reporter plasmids (0.02 mg lef-1, 0.2 lef-1 reporter, 0.03 mg renilla luciferase) control using lipofectamine (Life Technologies). Cells were assayed for luciferase activity 48 hours after transfection of antisense polynucleotides.
One method for measuring activation of gene expression by the Wnt pathway is to use the Lef-1 reporter gene assay. Antisense polynucleotides were transfected into cells by using cationic peptoid reagents followed by transfection with Lef-1, Lef-1 reporter, and Wnt-1 plasmids using lipofectamine (Life Technologies). Lef-1 reporter gene activity was measured using the Dual-Luciferase Reporter Assay System (Promega) according to the manufacturers specifications. […]
(A reporter such as luciferase makes a cellular process visible.)

The test system of data set [2] is Lef-1 dependent transcription. In words: Lef-1 enhancer luciferase reporter assay in Cos cells. In kind it is cell-based. Conditions: for Wnt signal transduction (Lef-luciferase): variant co-transfected with Wnt-1; for signal transduced by dominant negative GSK3 (DNGSK3): variant co-transfected with dominant negative GSK3 and Lef-1; for luciferase activity transduced by Dvl-1: variant with Dvl-1. How it is done:
(§1) Combinations of Wnt-1, CKIε, CKI kinase dead variant (lys→arg 38) and Lef-1 were transfected into Cos cells with a luciferase gene driven by multiple copies of Lef enhancer elements. As an internal control of transfection efficiency, the β-galactosidase gene driven by the SV40 promoter was co-transfected in all samples. 24 hours after transfection, cells were lysed and the lysate was tested for luciferase activity. The luciferase activity was normalized with respect to β-galactosidase activity. […] Dorsoanterior index (DAI) grade numbers were assigned to the phenotypes of the embryos. A grade 5 embryo is normal; a grade 3 embryo is cyclopic (one eye); a grade 1 embryo has a tail fin and somites but no head (acephalic); and a grade 0 embryo has no dorsoanterior structures (Kao et al., 1988).
The effect of CKI on Lef-1 dependent transcription in Cos mammalian cells was examined. A luciferase reporter gene driven by multiple copies of the Lef-I enhancer sequence was used. When only Wnt-I or lef-I or CKIε was transfected with the reporter construct, luciferase activity was induced only 2 to 3 fold (FIG. 1A). When Lef-1 was cotransfected with either Wnt-1 or CKIε, luciferase activity was induced 30 or 12 fold respectively.
Luciferase reporter plasmid contains multiple Lef-I enhancer sites upstream of the fos basal promoter. Various DNA plasmids encoding Wnt-1, CKIε , Dvl-1, GSK3 etc. were co-transfected with a luciferase reporter plasmid and a SV40 β-galactosidase plasmid into 24-well Cos cell culture. For each well, 0.5 μg total DNA was in a ratio of 0.08 μg:016 μg:0.02 μg for signaling molecules:luciferase: β-gal. SV40 β-gal construct was used as an internal transfection control, since β-gal activity is independent of the Wnt-1 signaling molecules. Transfection was done using LT1 (5 μl/μg DNA) (Panvera Co. # MIR23 10). Each sample was transfected in triplex repeats to obtain a statistical value. After 24 hours, cells were washed once with PBS and lysed in 50 μl/well lysis buffer supplied with the luciferase assay kit (Promega cat# EI500). 10 μl of each sample was aliquoted into two sets of tubes, one set for the luciferase assay and another for β-gal chemiluminescent reporter assay (Galacto-Light, TROPIX Inc. #BL100G). The result of the luciferase assay was divided by the corresponding β-gal activity, and then averaged.

Data set [3] has as its system casein. In words: Kinase activity of construct transfected into Cos cells, casein as substrate. Conditions: substrate casein protein. In kind it is biochemical. How it is done: It was transiently transfected into Cos cells and its activity was tested using substrate casein protein.
Data set [4] concerns ventralized Xenopus embryo. In words: Rescue of dorsal structure of ventralized Xenopus embryos by injected RNA. In kind it is in vivo. Conditions: RNA injected into ventralized embryos. How it is done: as §1
Furthermore, when the variant was co-transfected with CKIε into Cos cells, Lef-1-dependent luciferase activity was inhibited. […] Thus, the variant interferes with Wnt signaling, acting as a dominant negative.

B1: Wnt-1: Wnt-1 expressed from transfected plasmid (protein, UniProt P04628 28-370, looked up)
Proto-oncogene Wnt-1: ANSSGRWWGIVNVASSTNLLTDSKSLQLVLEPSLQLLSRKQRRLIRQNPGILHSVSGGLQSAVRECKWQFRNRRWNCPTAPGPHLFGKIVNRGCRETAFIFAITSAGVTHSVARSCSEGSIESCTCDYRRRGPGGPDWHWGGCSDNIDFGRLFGREFVDSGEKGRDLRFLMNLHNNEAGRTTVFSEMRQECKCHGMSGSCTVRTCWMRLPTLRAVGDVLRDRFDGASRVLYGNRGSNRASRAELLRLEPEDPAHKPPSPHDLVYFEKSPNFCTYSGRLGTAGTAGRACNSSSPALDGCELLCCGRGHRTRTQRVTERCNCTFHWCCHVSCRNCTHTRVLHECL
In the case of B1, the “stimulation of Lef-1 reporter gene transcription over vector transfected cells” value in data set [1] was 4-6 fold. Moreover, in data set [2] (cotransfected with Lef-1, Cos cells), the luciferase activity induced was 30 fold.

B2: CKI lys→arg 38: kinase-inactive CKIε construct in which lysine 38 in the kinase domain was mutated to arginine (protein)
chain: MELRVGNKYRLGRKIGSGSFGDIYLGANIASGEEVAIRLECVKTKHPQLHIESKFYKMMQGGVGIPSIKWCGAEGDYNVMVMELLGPSLEDLFNFCSRKFSLKTVLLLADQMISRIEYIHSKNFIHRDVKPDNFLMGLGKKGNLVYIIDFGLAKKYRDARTHQHIPYRENKNLTGTARYASINTHLGIEQSRRDDLESLGYVLMYFNLGSLPWQGLKAATKRQKYERISEKKMSTPIEVLCKGYPSEFSTYLNFCRSLRFDDKPDYSYLRQLFRNLFHRQGFSYDYVFDWNMLKFGAARNPEDVDRERREHEREERMGQLRGSATRALPPGPPTGATANRLRSAAEPVASTPASRIQQTGNTSPRAISRADRERKVSMRLHRGAPANVSSSDLTGRQEVSRLAASQTSVPFDHLGK
modifications: Mus Casein Kinase I epsilon
On to B2, for which the kinase activity entry in data set [3] is given as “no detectable kinase activity”. Also, in data set [4], the “rescue of embryonic dorsal structure” value is “failed to do so”. In addition, in data set [2] (variant co-transfected with CKIε), the Lef-1-dependent luciferase activity result was “inhibited”. For the same molecule, in data set [2], the “Wnt signal transduction (Lef-luciferase)” value is recorded as “blocked the Wnt signal transduction in a dose-dependent manner”, the “signal transduced by dominant negative GSK3 (DNGSK3)” value was “did not inhibit the signal” and the “luciferase activity transduced by Dvl-1” value is listed as “inhibited”. Also, the “Wnt signal transduction (Lef-luciferase)” value in data set [2] (listed as CKIKD) was “inhibits Wnt signaling”. Besides, in data set [2] (listed as variant), the “signal transduced by dominant negative GSK3 (DNGSK3)” value is given as “did not reduce the signal” and the “luciferase activity transduced by Dvl-1” value was “inhibited the effect of Dv1-1 on luciferase activity”.

Source of the values: patent publication US6512102B1, “Compositions and methods of diagnosis and treatment using casein kinase I” (Chiron Corporation, priority 1998, dated 2003).
